We go through two molecules from article doi:10.1101/2024.06.06.597810 (bioRxiv, 2024).

The assay concerns the target T1, Biotin-labeled BatCoV-BtkY72 stem helix peptide (Bat SARS-related coronavirus BtKY72 …, UniProt A0A3Q8AKM0, biotin (position not given)).
T1 construct: source: synthetic peptide, bought: GenScript
Description: BLI. Conditions: both partners purified.

Changes are numbered by the printed parent chain. Names and notes keep the numbering of the source.

B1: S2P6 UCA VH M48I/S56H double mutant Fab (Fab, V domains shown)
VH: QVQLVQSGAEVKKPGASVKVSCKASGYTFTSYYMHWVRQAPGQGLEWIGIINPSGGHTSYAQKFQGRVTMTRDTSTSTVYMELSSLRSEDTAVYYCARGSPKGAFDYWGQGTLVTVSS
VL: not shown
notes: source: Expi293F, co-transfected, purified (IgG-CH1-XL beads)
For the molecule B1, the binding result is “binds”.

B2: S2P6 UCA VH Y32Q/M48I/S56H triple mutant Fab (Fab, V domains shown)
VH: B1 VH with Y32Q
VL: not shown
notes: as for B1
For B2, the binding result is “binds”.
